Laboratory results published in publication PMC8809517, “Cofactor-independent RNA editing by a synthetic S-type PPR protein”.

T1: GFP-9S library array, motif 4 ND N98P;D124F (synthetic construct, N98P;D124F)
T1 chain: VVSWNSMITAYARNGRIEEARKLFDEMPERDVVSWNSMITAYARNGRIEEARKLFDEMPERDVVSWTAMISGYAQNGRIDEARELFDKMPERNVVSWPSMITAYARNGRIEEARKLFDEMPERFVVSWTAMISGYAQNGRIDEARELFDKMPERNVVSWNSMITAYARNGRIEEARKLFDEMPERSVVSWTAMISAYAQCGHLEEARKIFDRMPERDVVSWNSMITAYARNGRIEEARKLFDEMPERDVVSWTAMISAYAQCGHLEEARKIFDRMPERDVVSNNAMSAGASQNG

T2: GFP-9S library array, motif 4 ND N98C (synthetic construct, N98C)
T2 chain: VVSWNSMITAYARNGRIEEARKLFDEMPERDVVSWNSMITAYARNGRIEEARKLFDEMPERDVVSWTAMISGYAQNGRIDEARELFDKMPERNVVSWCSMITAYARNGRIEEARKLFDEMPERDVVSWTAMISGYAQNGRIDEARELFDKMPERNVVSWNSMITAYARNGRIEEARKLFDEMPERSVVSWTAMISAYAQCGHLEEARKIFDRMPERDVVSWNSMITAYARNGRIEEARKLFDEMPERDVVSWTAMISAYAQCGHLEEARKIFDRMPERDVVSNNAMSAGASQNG

T3: GFP-9S library array, motif 4 ND N98D;D124W (synthetic construct, N98D;D124W)
T3 chain: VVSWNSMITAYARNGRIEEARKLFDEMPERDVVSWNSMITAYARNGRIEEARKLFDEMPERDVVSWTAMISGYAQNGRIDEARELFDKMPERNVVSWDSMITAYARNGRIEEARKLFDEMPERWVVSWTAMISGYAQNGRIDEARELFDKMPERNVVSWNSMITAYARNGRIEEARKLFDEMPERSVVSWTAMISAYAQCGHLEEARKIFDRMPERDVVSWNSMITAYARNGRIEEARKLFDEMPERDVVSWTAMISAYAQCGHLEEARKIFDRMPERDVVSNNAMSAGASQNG

T4: GFP-9S library array, motif 4 ND N98W;D124P (synthetic construct, N98W;D124P)
T4 chain: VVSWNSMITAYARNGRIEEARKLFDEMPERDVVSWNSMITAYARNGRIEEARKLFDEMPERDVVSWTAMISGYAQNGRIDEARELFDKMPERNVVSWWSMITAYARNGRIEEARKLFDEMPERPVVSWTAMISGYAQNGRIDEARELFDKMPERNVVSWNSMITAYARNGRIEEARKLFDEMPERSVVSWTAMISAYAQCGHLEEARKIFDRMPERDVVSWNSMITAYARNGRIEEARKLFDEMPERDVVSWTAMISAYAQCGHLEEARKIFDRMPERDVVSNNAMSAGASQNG

T5: GFP-9S library array, motif 4 ND N98T;D124N (synthetic construct, N98T;D124N)
T5 chain: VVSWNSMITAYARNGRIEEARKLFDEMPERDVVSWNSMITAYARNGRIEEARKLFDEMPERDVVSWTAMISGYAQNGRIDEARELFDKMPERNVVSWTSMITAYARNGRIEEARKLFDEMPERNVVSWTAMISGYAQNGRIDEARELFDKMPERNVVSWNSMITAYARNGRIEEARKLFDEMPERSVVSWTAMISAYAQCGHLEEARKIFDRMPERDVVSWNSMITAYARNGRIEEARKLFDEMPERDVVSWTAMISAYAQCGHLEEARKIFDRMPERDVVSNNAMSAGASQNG


Experiments:
Test in all cases: high-throughput RNA pulldown from lysate on Ni-NTA beads; HRP: 50 mM Tris pH 8, 150 mM NaCl, 1 mM beta-mercaptoethanol, 50 ug/ml BSA, 3 ug/ml yeast RNA, 0.5% heparin; ITC and FP: Tris pH 8, 200 mM KCl, 5% glycerol; MST: 50 mM Tris pH 8, 200 mM NaCl, 1 mM DTT, BSA, heparin, 0.05% Tween 20
Conditions in all cases: tags: N-terminal His-eGFP
[1] = biological target: T1, GFP-9S library array, motif 4 ND …
[2] = biological target: T2, GFP-9S library array, motif 4 ND N98C
[3] = biological target: T3, GFP-9S library array, motif 4 ND …
[4] = biological target: T4, GFP-9S library array, motif 4 ND …
[5] = biological target: T5, GFP-9S library array, motif 4 ND …

Binder	Kd ([1]; label: 5' Cy5) [nM]	Kd ([2]; label: 5' Cy5) [nM]	Kd ([3]; label: 5' Cy5) [nM]	Kd ([4]; label: 5' Cy5) [nM]	Kd ([5]; label: 5' Cy5) [nM]	Kd ([1]; label: 5' IRDye 800CW) [nM]	Kd ([2]; label: 5' IRDye 800CW) [nM]	Kd ([3]; label: 5' IRDye 800CW) [nM]	Kd ([4]; label: 5' IRDye 800CW) [nM]	Kd ([5]; label: 5' IRDye 800CW) [nM]
AUUAGACGUGA (ssRNA) [Cy5-rpoA-G]	125	620	178	215	59	–	–	–	–	–
AUUACACGUGA (ssRNA) [Cy5-rpoA]	134	491	134	230	59.8	–	–	–	–	–
AUUAUACGUGA (ssRNA) [IR-rpoA-U]	–	–	–	–	–	290	651	202	526	53.3
AUUAAACGUGA (ssRNA) [IR-rpoA-A]	–	–	–	–	–	245	1290	572	579	8.35
